The test system of experiment [1] is bone marrow cells isolated from adult C57BL/6 mice. Briefly: Small molecule library screens on bone marrow cells in serum free N2B27 medium. Type of experiment: cell-based, mouse. Conditions: second screening, together with GDC0879.
Another experiment concerns ex vivo expanded GMPs. The experiment in a line: Macrophage differentiation of ex vivo expanded GMPs. Type of experiment: cell-based, mouse. Conditions: RPMI 1640+10% FBS+20 ng/mL MCSF, 7 days. The protocol: FIG. 3A-I presents results of macrophages differentiation from GMPs. […] P7 GMPs were cultured in RPMI 1640+10% FBS+20 ng/mL MCSF for 7 days. Mature macrophages were re-plated, fixed and stained for CD11b and F4/80. (B) Provides the results of an in vitro functional test of the differentiated macrophages. 1×10^5 GMPs (P7) or 1×10^6 whole BM cells were seeded into 1 well of 6-well plate in RPMI 1640+10% FBS+20 ng/mL MCSF. 7 days later, mature bone marrow-derived macrophages (BMM) and GMP-derived macrophages (GMPM) were trypsinized, counted and reseeded into 48-well plate at 1×10^5 cells per well in RPMI 1640+10% FBS. After overnight, cells were stimulated with 500 ng/mL LPS for 6 or 24 h. The inflammatory cytokines in the supernatant were measured by ELISA. (C) Provides images of another in vitro functional test of the differentiated macrophages. Green: E. coli-GFP. Red: tdTomato^+ macrophages. Top image, GFP labeled E. coli were co-cultured with tdTomato^+ GMPs-derived macrophages. Consecutive pictures were taken each 30′ under Zeiss LSM-780 confocal microscope for 1 h. […] (E), cells were harvested and FITC positive cells were analyzed by using BD Arial flow cytometry. […]
Long-term ex vivo expanded GMPs can differentiate into functional and mature macrophages. […] After 6 or 24 h, the supernatant was harvested and the concentrations of inflammatory cytokines TNFα, IL6 and IL10 by ELISA were measured.

For another experiment, the system named is mouse GMP. Briefly: Granulocyte differentiation of ex vivo expanded GMPs. Type of experiment: cell-based. Conditions: RPMI 1640+10% FBS, 20 ng/mL GCSF, 72 h. The protocol: Long-term ex vivo expanded GMPs can differentiate into functional and mature granulocytes. Granulocyte colony-stimulating factor (G-CSF) is a known hematopoietic growth factor that regulates neutrophils production in the bone marrow. G-CSF was used to induce mouse GMP differentiation towards the neutrophil lineage. After culturing for 3 weeks in E7^+SCF/GDC/CHIR conditions, GMPs were re-plated in RPMI 1640+10% FBS medium and stimulated with 20 ng/mL of GCSF. Seventy-two hours after stimulation with GCSF, GMPs differentiated into cells that morphologically resembled granulocytes (e.g., see FIG. 3F). To further verify the identity of these cells, the cells were harvested and stained with Gr1 and CD115 antibodies and analyzed by flow cytometer. Granulocytes are Gr1^+ and CD115^−.

Turning to `O=C(NCCCn1ccnc1)c1cc(-c2ccco2)on1` [SKL2001], the “expansion of the uniform round-shaped cells” value in experiment [1] is listed as “acted synergistically with GDC0879 to promote the expansion”.

B1: MCSF: macrophage colony-stimulating factor, used at 20 ng/mL for macrophage differentiation (protein, UniProt P09603 33-554, looked up)
Macrophage colony-stimulating …: EEVSEYCSHMIGSGHLQSLQRLIDSQMETSCQITFEFVDQEQLKDPVCYLKKAFLLVQDIMEDTMRFRDNTPNAIAIVQLQELSLRLKSCFTKDYEEHDKACVRTFYETPLQLLEKVKNVFNETKNLLDKDWNIFSKNCNNSFAECSSQDVVTKPDCNCLYPKAIPSSDPASVSPHQPLAPSMAPVAGLTWEDSEGTEGSSLLPGEQPLHTVDPGSAKQRPPRSTCQSFEPPETPVVKDSTIGGSPQPRPSVGAFNPGMEDILDSAMGTNWVPEEASGEASEIPVPQGTELSPSRPGGGSMQTEPARPSNFLSASSPLPASAKGQQPADVTGTALPRVGPVRPTGQDWNHTPQKTDHPSALLRDPPEPGSPRISSLRPQGLSNPSTLSAQPQLSRSHSSGSVLPLGELEGRRSTRDRRSPAEPEGGPASEGAARPLPRFNSVPLTDTGHERQSEGSFSPQLQESVFHLLVPSVILVLLAVGGLLFYRWRRRSHQEPQRADSPLEQPEGSPLTQDDRQVELPV
Turning to B1, the “cells expressing macrophage markers CD11b and F4/80” value with ex vivo expanded GMPs is “almost all the cells expressed both CD11b and F4/80”.

B2: GCSF: granulocyte colony-stimulating factor, used at 20 ng/mL for granulocyte differentiation (protein, UniProt P09919 31-207, looked up)
Granulocyte …: TPLGPASSLPQSFLLKCLEQVRKIQGDGAALQEKLVSECATYKLCHPEELVLLGHSLGIPWAPLSSCPSQALQLAGCLSQLHSGLFLYQGLLQALEGISPELGPTLDTLQLDVADFATTIWQQMEELGMAPALQPTQGAMPAFASAFQRRAGGVLVASHLQSFLEVSYRVLRHLAQP
On to B2, for which, in the experiment on mouse GMP, the “cells derived from GMPs that were Gr1+ CD115−” value is given as “more than 80%”.

The values above are taken from patent US12006513B2, “Methods for the long-term expansion of granulocyte-macrophage progenitors and applications thereof” (University of Southern California, priority 2018, dated 2024).
